Experiment: yeast display, Sf9 membrane polyspecificity reagent, FACS + sequencing; frameworks hold sequencing errors
Method in brief: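 Galactose-induced (36–48 hours) yeast carrying a synthetic nanobody display library were exposed to 10% biotinylated, detergent-solubilized Sf9 membrane reagent at 4 °C for 1 hour. FACS followed streptavidin microbead enrichment, using low and high (top ~1%) gates for expression (anti-HA) and reagent binding (streptavidin). Colony PCR, MiSeq 2 × 250 sequencing and CDR-length filtering followed. Labels for polyreactivity reflect the gate of origin.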

Sequence	polyreactivity (PSR sort gate)
QVQLVESGGGLVQAGGSLRLSCAASGIIFEGKARGWYRQAPGTERELVAAISTSTGRTYYADSVKGRFTISRDNAKNTVYLQINSLKPEDTAVYYCAAYIRTTRFDYWGQGTQVTVSS	high polyreactivity
QVQLVESGAGLVQAGGSLRLSCAASGSIFVQYAMGWSRQAPRNERELVAGISSIGGSTYYADSVKGRFTLSRDNSKNSVYLQMNSLKPEDTAVYYCAKRWRSSYRIGHDYWRQGTQVTVSS	low polyreactivity
QVQLVESGGGLVQAGGSLRLSCAASGRTIKYYAMGWYRQAPGKERQLVAVISWSGGRTYYADSVKGRFTISRDNAKNTVYLQMNSLKPEDTAVYYCNAVYPYYYLLKRYKEGYWGLGTQVTVSS	high polyreactivity
QVQLVESGGGLVQAGGSLRLSCAASGSTFGPYAMGWYRQAPGKERELVAAISSGGSTYADSVKGRFTISRDNAKNTVYLQMNSLKPEDTAVYYCAKVHGRGVYSVEYDYWVQGTQVTVSS	low polyreactivity
QVQLVESGGGLVQAGVSLRISCAPSGRTFIIYAMGRYRQAPGKERELVADISSGGSTYYADSVKGRFKISRDNAKNTVYLHMNSLKPEDTAVYYCAAQSWYYPIGYDYWGLGTQVTVSS	low polyreactivity
QVQLVDSGGGLVQAGGSLRLSCPASGRIFGRNAMAWYRQAPGKERELVAAISSSGGTYYADSVKGRFTISRDNAKNTVYLQMNSLKPEDTAVYYCAADPLYYWWRGDYWGQGTQVTVSS	high polyreactivity
QVQLVESGGGLVQAGGSLRLSCAPSGFIFGSYAMGWYTQAPGKERELVAAISRSGGRTYYADSVKGRFTISRDNAKNTVYLQMNSLKPEDSAVYYCAAVHLLVYPTYDSWGQGTQVTVSS	high polyreactivity
QVQLVESGGGLVQAGGSLRLSCAASGSTFGLYAMGWYIQAPGKERELVAAISSRGSRTYYADSVKGRFTISRDNAKNTVYLQLNSLIPEDTAVYYCNALYASSVRHKVTYDYWGQGTQVTVSS	high polyreactivity
QVQLVESGGGIVQAGGSLRLTCAASGRTYTPYAMGWYRQAPGKERELVAAIDTSGGSTYADSVKGRFTISRDNAKNTVYLQMNSLKPEDTAVYYCATRGFYSWDYWYLWEYDYWGQGTQVTVSS	low polyreactivity
QVQLVESGGGLVQAGGSLRLSCAASGSTIRYYAMGWYRQAPGKERELVAAITKSGGSTYYADSVKGRFTISRDNAKKTVYLQMNSLKPEDTAVYYCAAVRRWYYPALSEHDYWGQGTQVTVSS	low polyreactivity
QVQLQESGGGLVQAGGSLRLSCAASGSISNSAAMAWYRQAPGKERELVVSIGHGASSNYADSVKGRFTISRDNAKNTVYLQMNSLKPEDTAVYYCAAYPGFLDGFFYWGQSTQVTVSS	high polyreactivity
QVQLVESGGGLVQAGGSLRLSCAASGSTFTSYAMGWYRQAPGKERELVASIRSTSGRTYYADSVKGRFTISRDNAKNTVYLQMNSLKPEDTAVYYCAAATYGTWWTYADNPYDYWGQGTQVTVSS	high polyreactivity
QVQLVESGGGLVQAGGSLRLSCAASGFIFRWNAMGWYRQAPGKERELVAAITSGGGTNYADSVKGRFTISRDNAKNTVYLQMNSLKPEDTAVYYCNASYRRYSNYYKYGYWGQGTQVTVSS	high polyreactivity
QVQLLESGGGLVQAGGSLRLSCAASGSTFKSYAMGWYRQAPGKERELVAAISGRGGSTYYADSVKGRVTISRDNAKNTVYLQMNSLKPEDTAVYYCNALGSQRYDYWGQGTQVTVSS	high polyreactivity
QVQLVESGGGLVQAGGSLRLSCAASAFILYRYAMGWYRQAPGKERELVAAISRTGGSTYYADSVKGRFTISRDNAKNTVYLQMNSLKPEDTAVYYCNARSSYGLSYRQYGYWGQGTQVTVSS	high polyreactivity
QVQLVESGGGLVQAGGSLRLSCAASGFTLFDYAMGWYRQAPGKERELVAAITTSGGSTYYADSVKGRFTISRDNAKNTVYLQMNSLKPEDTAVYYCAVEYMLTYYYYVSYEYYYWGQGTQVTVSS	high polyreactivity

Sequence	polyreactivity (PSR sort gate)
QVQLVESGGGLVQAGGSLRLSCAASGSTFWYYAMGWYRQAPGKERELVAAITRDGTTYYADSVKGRFTISRDNAKNTVYLQMNSLKPEDTAVYYCAVDIDNWSEYDYWGQGTQVTVSS	low polyreactivity
QVQLVESGGGLVQAGGSLRLSCAASGFIFRYYAMGWYRQAPGKERELVAGITRTGGRTYYADSVKGRFTISRDNAKNTVYLQMNSLKPEDTAVYYCAADQYSRWRTKEAFSEYGFDYWGQGTQVTVSS	high polyreactivity
QVQLVESGGGLVQAGGSLRLSCAASGRTFYFYTMGWYRQAPGKERELVAAISWSGGSTYYADSVKGRFTISRDNAKNTVYLQMISLKPEDTAVYYCAASSPWEQSNDQFYYWGQGTQVTVSS	low polyreactivity
QVQLVESGGGLVQAGGSLRLSCAASGRTFWRNAMGWYRQAPGKERELVADITTSGARTYYADSVKGRFTISRDNAKNTVYLQMNSLKPEDTAVYYCAKGPYTPWPKITGYNYWGQGTQVTVSS	high polyreactivity
QVQLVESGGGLVQAGGSLRLSCAASGRISFRYAMGWSRQAPGKEWELVAAINRGGITNYADSVKGRFTISRDNAKNTVYFQMNSLKPEDTAVYYCAARYASPRYKSKMDYWGQGTQVTVSS	high polyreactivity
QVQLVESGGGLVQAGGSLRLSCAASGFTFGINAMGWYRQAPGQERELVASISSGSSTTYADSVKGRFTISRDNAKNTVYLQMNSLKPEDTAVYYCNARPFHIYWRYDYWGQGTQLTVSS	low polyreactivity
QVQLVESGGGLVQAGGSLRLSCAASGSIFWYNAMGWYRQAPGKERELVARISSSGDSTYYADSVKGRFTISRDNAKNTVYLQINSLKPEDTAVYYCNVDYWSISESSWGYYTSYDYWGQGTQVTVSS	high polyreactivity
QVQLEESGGGLVQAGGSLRLSCAASGFNFRKNVMGWYRPAPGKERELVAAISAPGGSTYYAHSVKGRFTISRDNGKNTGYLQMYCLKPEDPAVYFCKTDGYLYQYDYWGQGTQVTVSS	high polyreactivity
QVQLVESGGGLVQAGGSLRLSCAASGRTFSAYARGWYRQAPGKERELVAAISRRGGSTYYADSVKGRFTISRDNAKNTVYLQMNSLKPEDTAVYYCAADVYKQYGYYYWGQGTLVTVSS	high polyreactivity
QVQLVESGGGLVQAGGRLRLSCAASGRTFDDYAMGWYRQAPGKERELVAVITSGGRTKYADSVKGRFTISRDNAKNTVYLQMNSLKPEDTAVYYCAAREVHDRYGYWGQGTQVTVSS	high polyreactivity
QVQLVESGGGLVQAGGSLRLSCAASGSTFWSYAMGWYRQAPGKERELVAAITSGGRTYYADSVKGRFTISRDNAKNTVYLQMNSLKPEDTAVYYCNAVVRHTYRRFDYWGQGTQVTVSS	high polyreactivity
QVQLVESGGGLVQAGGRLRITCAASGRTFKTYAMGWYRPAPGKERELVAAISRRGGSTYFADSVKGRFTISRDNAKNTVYLQMNSLKPEDTAVYYCASGNSVGLGWGQGTQVTLSS	high polyreactivity
QVQLVESGGGLVQAGGSLRLSCAASGSTIRHYAMGWYRQAPGKERELVAAISSGARTYYADSVKGRFTISRDNAKNTVYLQMNSLKPEDTAVYYCAARYNGYAYPYYYWGQGTQVTVSS	high polyreactivity
QVQLVESGGRLVQAGGILRLSCAASGSTFDKNAMGWYRQAPGKERQLVAAINNGGGTTYYADSVKGRFTISRDNAKNTVYLQMNSLKPEDTAVYYCAAVGKAYWSDYQYRYYYWGQGTQVTVSS	low polyreactivity
QVQLVESGVGLVQAGGSLRLSCAASGSIFVPNTMRWYRQAPGKERELVAAITGGGSTDYADSVKGRFTISRDNAKNTVYLQMNSLKPEDTAVYYCNKDYWRDVAQDVLDGYDYWGQGTQVTVSS	low polyreactivity

— the nanobody polyreactivity screen of Harvey et al. (2022)
